Assay results from US20200317768A1 (published 2020).

T1: cynomolgus monkey FcγRIIa3 extracellular domain, C-terminal His-tag (cynomolgus monkey)
T1 construct: also called cyno FcγRIIa3; cynoFcgRIIa3; not shown: His-tag added to C-terminus
T1 chain: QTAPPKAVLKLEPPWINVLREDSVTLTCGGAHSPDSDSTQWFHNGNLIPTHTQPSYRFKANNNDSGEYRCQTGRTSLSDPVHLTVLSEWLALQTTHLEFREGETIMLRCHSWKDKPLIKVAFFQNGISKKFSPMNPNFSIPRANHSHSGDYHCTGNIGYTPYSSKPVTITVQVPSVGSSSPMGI

T2: cynomolgus monkey FcγRIIa1 extracellular domain, C-terminal His-tag (cynomolgus monkey)
T2 construct: also called cyno FcγRIIa1; cynoFcgRIIa1; not shown: His-tag added to C-terminus
T2 chain: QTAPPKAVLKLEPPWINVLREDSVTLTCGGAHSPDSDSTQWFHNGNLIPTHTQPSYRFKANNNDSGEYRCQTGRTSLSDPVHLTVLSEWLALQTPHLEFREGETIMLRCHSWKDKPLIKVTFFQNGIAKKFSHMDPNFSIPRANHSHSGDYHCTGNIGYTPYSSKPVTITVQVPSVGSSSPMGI

T3: human FcγRIIb extracellular domain, C-terminal His-tag (human, UniProt P31994 43-217)
T3 construct: also called humanFcgRIIb; not shown: His-tag added to C-terminus
T3 sequence: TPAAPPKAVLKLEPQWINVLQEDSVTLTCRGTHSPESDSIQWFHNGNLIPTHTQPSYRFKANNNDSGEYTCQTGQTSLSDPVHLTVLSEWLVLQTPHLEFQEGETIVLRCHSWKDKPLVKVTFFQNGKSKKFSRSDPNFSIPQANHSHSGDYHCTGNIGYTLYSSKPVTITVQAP

T4: cynomolgus monkey FcγRIIb extracellular domain, C-terminal His-tag (cynomolgus monkey)
T4 construct: also called cyno FcγRIIb; cynoFcγRIIb; not shown: His-tag added to C-terminus
T4 chain: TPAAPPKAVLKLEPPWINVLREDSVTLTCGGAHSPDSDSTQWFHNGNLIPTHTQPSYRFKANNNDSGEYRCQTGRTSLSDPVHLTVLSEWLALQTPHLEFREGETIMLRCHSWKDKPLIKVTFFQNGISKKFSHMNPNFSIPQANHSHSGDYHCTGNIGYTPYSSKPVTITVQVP

T5: human FcγRIIaH extracellular domain, C-terminal His-tag (human, UniProt P12318 34-217)
T5 construct: also called human FcγRIIa (type H); FcgRIIaH; not shown: His-tag added to C-terminus
T5 sequence: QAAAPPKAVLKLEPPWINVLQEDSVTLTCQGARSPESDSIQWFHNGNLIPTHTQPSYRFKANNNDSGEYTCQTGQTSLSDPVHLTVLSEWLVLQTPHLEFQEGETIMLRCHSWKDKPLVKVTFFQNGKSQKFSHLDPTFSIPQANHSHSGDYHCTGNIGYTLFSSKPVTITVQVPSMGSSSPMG

T6: human FcγRIIaR extracellular domain, C-terminal His-tag (human, UniProt P12318 34-217)
T6 construct: also called human FcγRIIa (type R); FcgRIIaR; not shown: His-tag added to C-terminus
T6 chain: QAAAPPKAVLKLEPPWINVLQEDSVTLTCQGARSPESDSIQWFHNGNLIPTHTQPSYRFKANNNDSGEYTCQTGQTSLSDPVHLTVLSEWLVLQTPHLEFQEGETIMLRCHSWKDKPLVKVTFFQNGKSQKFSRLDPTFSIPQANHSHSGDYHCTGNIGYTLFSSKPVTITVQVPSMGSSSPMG

T7: cynomolgus monkey FcγRIIa2 extracellular domain, C-terminal His-tag (cynomolgus monkey)
T7 construct: also called cyno FcγRIIa2; cynoFcgRIIa2; not shown: His-tag added to C-terminus
T7 chain: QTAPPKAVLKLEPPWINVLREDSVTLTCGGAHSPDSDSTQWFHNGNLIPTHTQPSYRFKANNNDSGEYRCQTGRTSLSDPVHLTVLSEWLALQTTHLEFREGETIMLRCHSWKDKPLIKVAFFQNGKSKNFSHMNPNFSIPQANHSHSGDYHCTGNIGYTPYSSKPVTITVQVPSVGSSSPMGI


Assays:
[1] = biological target: T8, cynomolgus monkey FcγRIIIaS extracellular domain, C-terminal His-tag (cynomolgus monkey, UniProt A3RFZ7 21-206 (rhesus entry)); experiment: SPR (BIACORE), antibody captured, FcγR analyte
T8 construct: also called cyno FcγRIIIaS; cynoFcγRIIIaS; not shown: His-tag added to C-terminus
T8 sequence (A3RFZ7 21-206): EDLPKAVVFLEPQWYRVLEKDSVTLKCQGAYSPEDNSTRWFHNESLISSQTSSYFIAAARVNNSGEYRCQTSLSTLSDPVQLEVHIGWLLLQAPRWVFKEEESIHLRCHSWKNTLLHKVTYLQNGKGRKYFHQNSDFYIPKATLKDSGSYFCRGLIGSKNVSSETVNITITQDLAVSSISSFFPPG
Protocol: (§1) The kinetic analysis of interactions between these antibodies and FcγR was carried out using BIACORE® T200 or BIACORE® 4000 (GE Healthcare). HBS-EP+ (GE Healthcare) was used as the running buffer, and the measurement temperature was set to 25° C. A chip produced by immobilizing Protein A. Protein A/G or mouse anti-human IgG kappa light chain (BD Biosciences) onto a Series S Sensor Chip CM4 or CM5 (GE Healthcare) by the amine-coupling method was used. […] After the measurement, the antibody captured on the chip was washed off by allowing reaction with 10 mM glycine-HCl, pH1.5 and 25 mM NaOH so that the chip was regenerated and used repeatedly. The sensorgrams obtained as measurement results were analyzed by the 1:1 Langmuir binding model using the BIACORE® Evaluation Software to calculate the binding rate constant ka (L/mol/s) and dissociation rate constant kd (l/s), and the dissociation constant KD (mol/L) was calculated from these values. […] Regarding such interactions, KD values were calculated using the following 1:1 binding model described in BIACORE® T100 Software Handbook BR1006-48 Edition AE.

[2] = biological target: T1, cynomolgus monkey FcγRIIa3 …; experiment: SPR (BIACORE), antibody captured, FcγR analyte
Protocol: as §1

[3] = biological target: T2, cynomolgus monkey FcγRIIa1 …; experiment: SPR (BIACORE), antibody captured, FcγR analyte
Protocol: as §1

[4] = biological target: T3, human FcγRIIb extracellular domain, …; experiment: SPR (BIACORE), antibody captured, FcγR analyte
Protocol: as §1

[5] = biological target: T9, human FcγRIIIaV extracellular domain, C-terminal His-tag (human, UniProt P08637 17-208); experiment: SPR (BIACORE), antibody captured, FcγR analyte
T9 construct: also called FcgRIIIaV; not shown: His-tag added to C-terminus
T9 sequence (P08637 17-208 F176V): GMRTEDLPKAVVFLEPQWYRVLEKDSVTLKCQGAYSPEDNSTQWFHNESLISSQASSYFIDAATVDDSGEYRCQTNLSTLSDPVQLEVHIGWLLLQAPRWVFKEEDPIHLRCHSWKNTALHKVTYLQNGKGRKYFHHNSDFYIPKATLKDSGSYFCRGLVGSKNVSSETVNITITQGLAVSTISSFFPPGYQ
Protocol: as §1

[6] = biological target: T4, cynomolgus monkey FcγRIIb extracellular …; experiment: SPR (BIACORE), antibody captured, FcγR analyte
Protocol: as §1

[7] = biological target: T5, human FcγRIIaH extracellular domain, …; experiment: SPR (BIACORE), antibody captured, FcγR analyte
Protocol: as §1

[8] = biological target: T6, human FcγRIIaR extracellular domain, …; experiment: SPR (BIACORE), antibody captured, FcγR analyte
Protocol: as §1

[9] = biological target: T7, cynomolgus monkey FcγRIIa2 …; experiment: SPR (BIACORE), antibody captured, FcγR analyte
Protocol: as §1

[10] = biological target: T8, cynomolgus monkey FcγRIIIaS …; experiment: SPR (BIACORE); KD of parent SG1 / KD of variant;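 further: relative to parent M103205H795-SG1 carrying the SG1 human heavy chain constant region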
Protocol: as §1

[11] = biological target: T1, cynomolgus monkey FcγRIIa3 …; experiment: SPR (BIACORE); KD of parent SG1 / KD of variant;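 further: relative to parent M103205H795-SG1 carrying the SG1 human heavy chain constant region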
Protocol: as §1

[12] = biological target: T2, cynomolgus monkey FcγRIIa1 …; experiment: SPR (BIACORE); KD of parent SG1 / KD of variant;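 further: relative to parent M103205H795-SG1 carrying the SG1 human heavy chain constant region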
Protocol: as §1

[13] = biological target: T3, human FcγRIIb extracellular domain, …; experiment: SPR (BIACORE); KD of parent SG1 / KD of variant;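 further: relative to parent M103205H795-SG1 carrying the SG1 human heavy chain constant region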
Protocol: as §1

[14] = biological target: T9, human FcγRIIIaV extracellular domain, …; experiment: SPR (BIACORE); KD of parent SG1 / KD of variant
Protocol: as §1

[15] = biological target: T4, cynomolgus monkey FcγRIIb extracellular …; experiment: SPR (BIACORE); KD of parent SG1 / KD of variant
Protocol: as §1

[16] = biological target: T5, human FcγRIIaH extracellular domain, …; experiment: SPR (BIACORE); KD of parent SG1 / KD of variant
Protocol: as §1

[17] = biological target: T6, human FcγRIIaR extracellular domain, …; experiment: SPR (BIACORE); KD of parent SG1 / KD of variant
Protocol: as §1

[18] = biological target: T7, cynomolgus monkey FcγRIIa2 …; experiment: SPR (BIACORE); KD of parent SG1 / KD of variant
Protocol: as §1

| Kd [1] | Kd [2] | Kd [3] | Kd [4] | Kd [5] | Kd [6] | Kd [7] | Kd [8] | Kd [9] | KD fold (SG1 = 1) [10] | KD fold (SG1 = 1) [11] | KD fold (SG1 = 1) [12] | KD fold (SG1 = 1) [13] | KD fold (SG1 = 1) [14] | KD fold (SG1 = 1) [15] | KD fold (SG1 = 1) [16] | KD fold (SG1 = 1) [17] | KD fold (SG1 = 1) [18] | Binder |
| --- | --- | --- | --- | --- | --- | --- | --- | --- | --- | --- | --- | --- | --- | --- | --- | --- | --- | --- |
| 4400 nM | 3000 nM | 1800 nM | 1200 nM | 12000 nM | 500 nM | 1200 nM | 1000 nM | 1500 nM | 0.06 fold | 2.9 fold | 2.6 fold | 3.9 fold | 0.05 fold | 3.9 fold | 0.7 fold | 1 fold | 3 fold | M103205H795-SG1033 / M103202L889-SK1 (antibody, human IgG1, kappa, CH with G236N/H268D/A330K/N434A against SG1 (EU numbering); also called MS1032LO06-SG1033) heavy: QVTLKESGPVLVKPTETLTLTCTVSGIDLSHDDISWVRQAPGKGLEWVGIISYAGSTYYASWAKGRLTISKDTSKNQVVLTMTNMDPVDTATYYCARGVPAYSHGGDLWGQGTLVTVSSASTKGPSVFPLAPSSKSTSGGTAALGCLVKDYFPEPVTVSWNSGALTSGVHTFPAVLQSSGLYSLSSVVTVPSSSLGTQTYICNVNHKPSNTKVDKKVEPKSCDKTHTCPPCPAPELLNGPSVFLFPPKPKDTLMISRTPEVTCVVVDVSDEDPEVKFNWYVDGVEVHNAKTKPREEQYNSTYRVVSVLTVLHQDWLNGKEYKCKVSNKALPKPIEKTISKAKGQPREPQVYTLPPSREEMTKNQVSLTCLVKGFYPSDIAVEWESNGQPENNYKTTPPVLDSDGSFFLYSKLTVDKSRWQQGNVFSCSVMHEALHAHYTQKSLSLSP light: DIVMTQSPATLSLSPGERATLSCTSSQSVYHANWLSWFQQKPGQPPKLLIYWASTLAYGVPSRFSGSGSGTDFTLTISSLQPEDAATYYCAGGYGGGRYAFGQGTKVEIKRTVAAPSVFIFPPSDEQLKSGTASVVCLLNNFYPREAKVQWKVDNALQSGNSQESVTEQDSKDSTYSLSSTLTLSKADYEKHKVYACEVTHQGLSSPVTKSFNRGEC |
| 260 nM | 6600 nM | 8800 nM | 3800 nM | 580 nM | 1700 nM | 970 nM | 960 nM | 4100 nM | 1 fold | 1 fold | 1 fold | 1 fold | 1 fold | 1 fold | 1 fold | 1 fold | 1 fold | MS_M103240H795-SG1/M103202L1045-SK1 (antibody, human IgG1, kappa, Parent of the MS1032LO19 Fc variants; also called MS1032LO19-SG1; MS103240H795-SG1) heavy: not shown light: DIVMTQSPATLSLSPGERATLSCTTSQSVYHENWLSWFQQKPGQPPKLLIYWASTLAYGVPSRFSGSGSGTDFTLTISSLQPEDAATYYCAGGYGGGRYAFGQGTKVEIKRTVAAPSVFIFPPSDEQLKSGTASVVCLLNNFYPREAKVQWKVDNALQSGNSQESVTEQDSKDSTYSLSSTLTLSKADYEKHKVYACEVTHQGLSSPVTKSFNRGEC |
| 2200 nM | 4200 nM | 8100 nM | 2600 nM | 7100 nM | 880 nM | 810 nM | 250 nM | 2700 nM | 0.15 fold | 2 fold | 1.5 fold | 1.8 fold | 0.09 fold | 2.2 fold | 2.9 fold | 4.1 fold | 1.7 fold | M103205H795-SG1034 / M103202L889-SK1 (antibody, human IgG1, kappa, CH with G236T/H268D/Q311R/A330K/D413K/N434A against SG1 (EU numbering); also called MS1032LO06-SG1034) heavy: QVTLKESGPVLVKPTETLTLTCTVSGIDLSHDDISWVRQAPGKGLEWVGIISYAGSTYYASWAKGRLTISKDTSKNQVVLTMTNMDPVDTATYYCARGVPAYSHGGDLWGQGTLVTVSSASTKGPSVFPLAPSSKSTSGGTAALGCLVKDYFPEPVTVSWNSGALTSGVHTFPAVLQSSGLYSLSSVVTVPSSSLGTQTYICNVNHKPSNTKVDKKVEPKSCDKTHTCPPCPAPELLTGPSVFLFPPKPKDTLMISRTPEVTCVVVDVSDEDPEVKFNWYVDGVEVHNAKTKPREEQYNSTYRVVSVLTVLHRDWLNGKEYKCKVSNKALPKPIEKTISKAKGQPREPQVYTLPPSREEMTKNQVSLTCLVKGFYPSDIAVEWESNGQPENNYKTTPPVLDSDGSFFLYSKLTVKKSRWQQGNVFSCSVMHEALHAHYTQKSLSLSP light: DIVMTQSPATLSLSPGERATLSCTSSQSVYHANWLSWFQQKPGQPPKLLIYWASTLAYGVPSRFSGSGSGTDFTLTISSLQPEDAATYYCAGGYGGGRYAFGQGTKVEIKRTVAAPSVFIFPPSDEQLKSGTASVVCLLNNFYPREAKVQWKVDNALQSGNSQESVTEQDSKDSTYSLSSTLTLSKADYEKHKVYACEVTHQGLSSPVTKSFNRGEC |
